According to paper PMC3229523, “Identification of Lactoferricin B Intracellular Targets Using an Escherichia coli Proteome Chip” (PLoS ONE, 2011):
Ends that are not written are not given here. * marks the point of attachment. Biotin = O=C1N[C@H]2[C@H](CS[C@H]2CCCCC(=O)*)N1

Key:
Experiment in all cases: peptide or protein array; E. coli proteome chip: purified His-tagged proteins printed in duplicate on Fullmoon slides, blocked with 1% BSA; 10 nM N-terminal biotinylated LfcinB with 1% BSA, room temperature, 1 h; detected with DyLight 649-labeled streptavidin, ratio to DyLight 549-labeled anti-His antibody; ProCAT normalisation, local cut-off; triplicate chips
Settings in all cases: both partners purified
YhiW = biological target: T1, YhiW (E. coli K-12, UniProt P63201 1-242)
T1 construct: YhiW, E. coli K-12
T1 sequence (looked up): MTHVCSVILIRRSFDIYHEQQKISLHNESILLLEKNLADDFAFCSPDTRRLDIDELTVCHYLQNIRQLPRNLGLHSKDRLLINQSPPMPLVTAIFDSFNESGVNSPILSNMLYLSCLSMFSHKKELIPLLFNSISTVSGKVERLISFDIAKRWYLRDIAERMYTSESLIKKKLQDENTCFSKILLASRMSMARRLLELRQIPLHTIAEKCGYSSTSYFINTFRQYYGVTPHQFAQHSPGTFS

YihS = biological target: T2, YihS (E. coli K-12, UniProt P32140 1-413)
T2 construct: YihS, E. coli K-12
T2 sequence (looked up): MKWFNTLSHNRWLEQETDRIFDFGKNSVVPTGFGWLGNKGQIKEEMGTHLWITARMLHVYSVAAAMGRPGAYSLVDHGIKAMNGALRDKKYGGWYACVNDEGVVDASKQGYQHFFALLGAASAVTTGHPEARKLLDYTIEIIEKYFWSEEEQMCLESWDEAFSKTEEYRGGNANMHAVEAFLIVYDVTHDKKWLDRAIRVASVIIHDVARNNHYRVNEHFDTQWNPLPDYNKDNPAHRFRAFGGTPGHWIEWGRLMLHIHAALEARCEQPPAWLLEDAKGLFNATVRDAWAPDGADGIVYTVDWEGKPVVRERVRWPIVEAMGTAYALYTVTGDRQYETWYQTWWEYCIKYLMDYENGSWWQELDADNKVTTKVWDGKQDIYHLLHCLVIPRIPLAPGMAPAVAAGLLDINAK

RfaS = biological target: T3, RfaS (E. coli K-12, UniProt P27126 1-311)
T3 construct: RfaS, E. coli K-12
T3 sequence (looked up): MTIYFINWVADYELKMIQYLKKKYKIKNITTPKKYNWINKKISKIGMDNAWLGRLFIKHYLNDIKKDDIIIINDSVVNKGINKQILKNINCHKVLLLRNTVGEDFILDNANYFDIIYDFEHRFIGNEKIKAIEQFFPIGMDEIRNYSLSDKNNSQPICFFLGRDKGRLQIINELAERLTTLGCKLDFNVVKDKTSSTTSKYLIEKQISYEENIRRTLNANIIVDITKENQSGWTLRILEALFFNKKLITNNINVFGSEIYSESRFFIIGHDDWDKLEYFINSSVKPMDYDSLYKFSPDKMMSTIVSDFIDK

GidB = biological target: T4, GidB (E. coli K-12, UniProt P0A6U5 1-207)
T4 construct: GidB, E. coli K-12
T4 sequence (looked up): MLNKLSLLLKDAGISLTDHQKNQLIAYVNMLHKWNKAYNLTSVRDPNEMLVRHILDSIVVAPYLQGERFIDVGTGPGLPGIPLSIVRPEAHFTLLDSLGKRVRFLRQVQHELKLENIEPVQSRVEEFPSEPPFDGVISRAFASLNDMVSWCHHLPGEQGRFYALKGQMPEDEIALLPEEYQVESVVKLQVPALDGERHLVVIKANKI

ThiF = biological target: T5, ThiF (E. coli K-12, UniProt P30138 1-251)
T5 construct: ThiF, E. coli K-12
T5 sequence (looked up): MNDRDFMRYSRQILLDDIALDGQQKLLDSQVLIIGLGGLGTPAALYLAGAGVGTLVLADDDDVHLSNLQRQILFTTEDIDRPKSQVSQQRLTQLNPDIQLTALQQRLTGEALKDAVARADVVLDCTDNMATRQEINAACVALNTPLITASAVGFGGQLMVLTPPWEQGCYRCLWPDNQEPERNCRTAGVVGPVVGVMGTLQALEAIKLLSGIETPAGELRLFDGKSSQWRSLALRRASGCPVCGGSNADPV

YciT = biological target: T6, YciT (E. coli K-12, UniProt P76034 1-249)
T6 construct: YciT, E. coli K-12
T6 sequence (looked up): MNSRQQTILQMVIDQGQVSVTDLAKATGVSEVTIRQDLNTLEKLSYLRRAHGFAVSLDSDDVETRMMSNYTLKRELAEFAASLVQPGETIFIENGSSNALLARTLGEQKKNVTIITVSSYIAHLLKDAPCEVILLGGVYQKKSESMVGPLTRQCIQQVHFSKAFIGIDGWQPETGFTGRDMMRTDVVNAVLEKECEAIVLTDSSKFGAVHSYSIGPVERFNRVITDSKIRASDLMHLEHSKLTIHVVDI

Measured: binding result

B1: N-terminal biotinylated Lactoferricin B (peptide, UniProt P24627 36-60, looked up)
peptide: Biotin-FKCRRWQWRMKKLGAPSITCVRRAF
modifications: ends and bridges not checked
notes: lactoferricin B (LfcinB), cationic antimicrobial peptide of 25 amino acids; also called biotinylated LfcinB; biotin-labeled LfcinB; source: bought: Kelowna Inc
binds: all assays above
